Source: patent US20240402174A1 (Takeda / Millennium, published 2024)

T1: GII.3 VLP (norovirus Hu/GII.3/NIHIC8.1/2011/USA)
T1 construct: also called Hu/GII.3/NIHIC8.1/2011/USA
T1 chain: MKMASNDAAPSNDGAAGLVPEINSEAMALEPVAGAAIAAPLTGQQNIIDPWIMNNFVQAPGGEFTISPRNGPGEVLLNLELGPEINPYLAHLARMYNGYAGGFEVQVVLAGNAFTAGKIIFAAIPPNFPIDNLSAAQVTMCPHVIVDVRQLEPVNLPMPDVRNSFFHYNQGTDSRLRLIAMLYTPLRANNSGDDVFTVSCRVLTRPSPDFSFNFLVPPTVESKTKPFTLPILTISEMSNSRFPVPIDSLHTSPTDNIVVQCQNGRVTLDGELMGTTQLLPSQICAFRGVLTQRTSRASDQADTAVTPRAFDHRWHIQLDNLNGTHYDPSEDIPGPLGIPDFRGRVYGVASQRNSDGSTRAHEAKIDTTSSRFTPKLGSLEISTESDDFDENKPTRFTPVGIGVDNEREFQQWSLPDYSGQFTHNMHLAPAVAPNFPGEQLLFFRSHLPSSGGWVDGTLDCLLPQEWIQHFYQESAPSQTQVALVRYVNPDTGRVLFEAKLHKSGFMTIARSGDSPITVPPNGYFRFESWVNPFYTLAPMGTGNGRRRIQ

T2: GII.6 VLP (norovirus Hu/GII.6/Ehime120246/2012/JP)
T2 construct: also called Hu/GII.6/Ehime120246/2012/JP
T2 chain: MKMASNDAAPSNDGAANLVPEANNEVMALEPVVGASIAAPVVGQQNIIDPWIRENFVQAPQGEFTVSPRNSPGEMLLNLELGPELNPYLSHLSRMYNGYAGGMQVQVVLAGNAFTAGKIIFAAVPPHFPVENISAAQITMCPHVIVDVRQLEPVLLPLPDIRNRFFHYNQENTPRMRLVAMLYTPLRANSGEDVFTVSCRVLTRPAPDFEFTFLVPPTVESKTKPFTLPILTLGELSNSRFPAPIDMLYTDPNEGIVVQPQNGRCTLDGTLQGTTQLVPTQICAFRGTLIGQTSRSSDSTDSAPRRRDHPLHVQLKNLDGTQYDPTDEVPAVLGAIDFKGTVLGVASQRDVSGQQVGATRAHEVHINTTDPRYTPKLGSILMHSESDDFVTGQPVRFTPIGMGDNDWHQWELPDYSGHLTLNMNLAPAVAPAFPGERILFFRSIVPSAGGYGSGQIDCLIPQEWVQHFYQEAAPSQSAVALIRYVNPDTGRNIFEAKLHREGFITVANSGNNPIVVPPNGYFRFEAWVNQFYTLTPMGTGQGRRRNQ

T3: GII.4/New Orleans VLP (norovirus Hu/GII.4/New …, UniProt P54635 1-539)
T3 construct: also called Hu/GII.4/New Orleans1805/2009/USA
T3 chain: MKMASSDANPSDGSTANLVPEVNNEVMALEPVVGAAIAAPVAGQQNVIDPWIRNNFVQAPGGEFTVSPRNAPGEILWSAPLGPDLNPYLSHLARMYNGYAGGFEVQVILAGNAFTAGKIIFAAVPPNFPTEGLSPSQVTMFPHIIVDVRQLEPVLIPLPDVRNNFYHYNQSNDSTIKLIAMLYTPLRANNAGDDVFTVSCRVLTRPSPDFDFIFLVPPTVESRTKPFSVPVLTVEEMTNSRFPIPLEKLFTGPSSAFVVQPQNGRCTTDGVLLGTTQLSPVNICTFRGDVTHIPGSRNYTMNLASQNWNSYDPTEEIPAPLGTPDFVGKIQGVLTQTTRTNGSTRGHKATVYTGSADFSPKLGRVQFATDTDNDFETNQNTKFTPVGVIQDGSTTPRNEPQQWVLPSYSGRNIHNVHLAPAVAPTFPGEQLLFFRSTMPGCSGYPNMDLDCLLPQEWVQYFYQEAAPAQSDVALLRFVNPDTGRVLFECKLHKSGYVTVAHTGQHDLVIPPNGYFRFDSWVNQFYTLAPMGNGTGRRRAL

T4: GII.4/Den Haag VLP (norovirus Hu/GII.4/DenHaag89/2006/NL, UniProt P54635 1-539)
T4 construct: also called Hu/GII.4/DenHaag89/2006/NL
T4 chain: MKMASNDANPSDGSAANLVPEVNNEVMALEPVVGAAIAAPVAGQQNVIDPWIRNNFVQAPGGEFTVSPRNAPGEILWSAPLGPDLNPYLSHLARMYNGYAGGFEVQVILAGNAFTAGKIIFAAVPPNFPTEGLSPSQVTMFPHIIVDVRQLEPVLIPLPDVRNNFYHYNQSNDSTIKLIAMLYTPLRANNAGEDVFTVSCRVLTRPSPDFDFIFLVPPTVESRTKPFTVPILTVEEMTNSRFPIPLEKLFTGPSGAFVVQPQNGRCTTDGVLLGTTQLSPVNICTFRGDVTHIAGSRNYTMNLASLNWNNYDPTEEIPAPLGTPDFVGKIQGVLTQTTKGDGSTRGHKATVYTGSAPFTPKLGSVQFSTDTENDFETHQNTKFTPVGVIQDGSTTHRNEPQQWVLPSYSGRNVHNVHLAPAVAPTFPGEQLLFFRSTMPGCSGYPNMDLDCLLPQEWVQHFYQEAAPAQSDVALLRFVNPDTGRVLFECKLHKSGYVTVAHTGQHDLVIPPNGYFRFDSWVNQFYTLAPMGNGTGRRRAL

T5: GII.12 VLP (norovirus Hu/GII.12 strain E5152)
T5 construct: also called Hu/GII.12 strain E5152
T5 chain: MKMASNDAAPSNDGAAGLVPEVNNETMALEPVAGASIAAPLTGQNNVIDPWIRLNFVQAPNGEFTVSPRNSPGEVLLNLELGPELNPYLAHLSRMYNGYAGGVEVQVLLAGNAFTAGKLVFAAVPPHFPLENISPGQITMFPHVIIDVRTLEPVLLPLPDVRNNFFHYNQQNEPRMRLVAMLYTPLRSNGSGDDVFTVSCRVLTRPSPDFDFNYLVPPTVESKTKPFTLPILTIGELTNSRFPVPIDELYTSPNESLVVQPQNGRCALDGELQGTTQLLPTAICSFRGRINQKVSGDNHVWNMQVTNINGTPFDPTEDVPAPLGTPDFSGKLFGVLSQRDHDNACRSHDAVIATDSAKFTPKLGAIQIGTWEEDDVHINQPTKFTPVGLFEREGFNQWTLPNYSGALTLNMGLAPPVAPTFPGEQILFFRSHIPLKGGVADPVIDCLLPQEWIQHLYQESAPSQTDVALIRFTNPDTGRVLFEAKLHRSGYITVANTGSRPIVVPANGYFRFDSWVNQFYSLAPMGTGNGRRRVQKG

B1: human mAb 1431 (antibody, V domains shown)
VH: QVQLVQSGGGLVQPGGSLRLSCAASGFAFSNHGMHWVRQAPGKGLEWLSYISGSTGAIHYANSVKGRFTISRDNARNSLDLQMNSLGDEDTAVYYCARDGPRPDGTGYAGPSNDYWGQGTLVSVSS
VL: EIVLTQSPASLSLSPGERATLSCKASRSISIYLAWYQQKPGQAPRLLIYDASYRAIGIPARFSGSGSGTDFTLTISNLEPEDFAVYYCQHRSSWPALTFGGGTKVEI
notes: also called A1431
B2: human mAb 1227 (antibody, V domains shown)
VH: QVQLVQSGGGMVQPGGSLSLSCAASGFTLSNYAMTWVRQAPGKGLEWVSSIGGSGGTTYYADSVKGRFTISRDSSMNTLYLQMSNLRAGDTAVYYCAKDKTRTLRLGYSGMDVWGQGTTVTVSS
VL: DIRLTQSPSSLSASVGDRVTITCRASQSISSYLNWYQQKPGKAPDLLIYGASSLQSGVPSRFSGSGSGTDFTLTISSLQPEDFGNYYCQQSFSTPRTFGQGTKVEL
notes: also called A1227

Tests used:
Assay in all cases: multiplex microsphere immunoassay
GII.3 VLP = biological target: T1, GII.3 VLP
GII.6 VLP = biological target: T2, GII.6 VLP
GII.4/New Orleans VLP = biological target: T3, GII.4/New Orleans VLP
GII.4/Den Haag VLP = biological target: T4, GII.4/Den Haag VLP
GII.12 VLP = biological target: T5, GII.12 VLP

Row | Binder | binding result (GII.3 VLP) | binding result (GII.6 VLP) | EC50 (GII.4/New Orleans VLP) | EC50 (GII.4/Den Haag VLP) | binding result (GII.12 VLP) | EC50 (GII.3 VLP) | EC50 (GII.6 VLP) | EC50 (GII.12 VLP)
1 | B1 | no binding | no binding | 0.018 mg/L | 0.024 mg/L | no binding | – | – | –
2 | B2 | – | – | 0.007 mg/L | 0.014 mg/L | – | 0.006 mg/L | 0.071 mg/L | 0.026 mg/L
